# Assay results as given in patent publication EP3196312B1, “EFFICIENT CONVERSION OF METHYLGLYOXAL INTO HYDROXYACETONE USING NOVEL ENZYMES AND APPLI CATIONS THEREOF” (Metabolic Explorer, priority 2016, dated 2017).
# Key:
# [1] = tested on: CC(=O)C=O; assay: Methylglyoxal reductase kinetic parameters of purified enzyme (NAD(P)H consumption at 340 nm); assay type: biochemical, Escherichia coli; conditions: other: substrate methylglyoxal 0.1-40 mM, cofactor NADH, 100mM MES-KOH (pH6.5) 0.1mM FeSO4 30mM ammonium sulfate, 30°C, pH 6.5
# Description: For strain 14, the purification protocol was previously described in patent application WO 2015/173247. Table 3: Protein storage buffer
# (§1) Methylglyoxal reductase activity (MGR) was determined by measuring the consumption of NAD(P)H at 340 nm on a spectrophotometer at 30°C (λ340 = 6290 M^-1 cm^-1). The reaction mixture (1mL) containing assay buffer and purified enzyme was incubated for 5 min at 30°C. Then, 0.1-40 mM methylglyoxal was added to start the reaction. One unit of enzyme activity was defined as the amount of enzyme catalyzing the decrease of 1µmol of NAD(P)H per min. Kinetic parameters were determined with Sigmaplot.
# [2] = tested on: CC(=O)C=O; assay: as above; assay type: biochemical, Escherichia coli; conditions: other: substrate methylglyoxal 0.1-40 mM, cofactor NADPH, pH 7.5
# Description: Except for the strain 18, the proteins were purified from the crude cell-extract by affinity on a Profinity column (BIORAD, Bio-Scale Mini Profinity exact cartridge 5 ml) according to the protocol recommended by the manufacturer. The crude extract was loaded on a 5 ml Profinity exact cartridge equilibrated with 100 mM potassium phosphate pH 7.6. The column was washed with 10 column volumes of the same buffer and incubated 30min with 100 mM potassium phosphate pH 7.6, 100 mM fluoride at room temperature. The protein was eluted from the column with 2 column volumes of 100 mM potassium phosphate pH 7.6. The tag remained tightly bound to the resin and the purified protein was released. The fractions containing the protein were pooled, concentrated and loaded on a gel filtration column (Superdex 200 10/300 GL column, GE Healthcare) equilibrated with different storage buffers (Table 3). Protein concentration was measured using the Bradford protein assay.
# as §1
substance,measurement,setting,value
"Escherichia coli GldA (glycerol dehydrogenase) variant GldA*(A160T), SEQ ID NO: 17 (Escherichia coli K-12; A160T)",Km,[1],3.17 mM
same,kcat/Km,[1],7.8 mM⁻¹ s⁻¹
"Escherichia coli YdjG variant YdjG*(D232E), SEQ ID NO: 101 (Escherichia coli K-12; D232E)",Km,"[2]; 20mM Hepes (pH7.5), 30°C",3.25 mM
same,kcat/Km,"[2]; 20mM Hepes (pH7.5), 30°C",0.01 mM⁻¹ s⁻¹
"Escherichia coli YqhD variant YqhD*(G149E), SEQ ID NO: 9 (Escherichia coli K-12; G149E)",Km,"[2]; 20mM Hepes (pH7.5) 0.1mM ZnSO4, 30°C",2.92 mM
